Experimental data taken from patent EP4613767 (dated 2025).
Residue numbers refer to the chain shown, from its start.

Assays:
human CD3 (Jurkat cells) = target: T1, human CD3 (Jurkat cells) (human, UniProt P07766); experiment: FACS, Jurkat cells
T1 chain: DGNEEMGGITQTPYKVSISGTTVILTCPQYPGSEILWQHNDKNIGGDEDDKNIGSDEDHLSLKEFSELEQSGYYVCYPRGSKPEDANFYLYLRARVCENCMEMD

human CD3 E&D protein = target: T2, human CD3 E&D protein (human, UniProt P07766); experiment: SPR
T2 chain 1: T1 chain
T2 chain 2: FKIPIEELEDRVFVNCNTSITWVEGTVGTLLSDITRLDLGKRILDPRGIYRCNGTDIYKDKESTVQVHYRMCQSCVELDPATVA

human GPC3 (HepG2 cells) = human GPC3 (HepG2 cells) (human, UniProt P51654); experiment: FACS, HepG2 cells
Sequence of human GPC3 (HepG2 cells) (P51654 25-554): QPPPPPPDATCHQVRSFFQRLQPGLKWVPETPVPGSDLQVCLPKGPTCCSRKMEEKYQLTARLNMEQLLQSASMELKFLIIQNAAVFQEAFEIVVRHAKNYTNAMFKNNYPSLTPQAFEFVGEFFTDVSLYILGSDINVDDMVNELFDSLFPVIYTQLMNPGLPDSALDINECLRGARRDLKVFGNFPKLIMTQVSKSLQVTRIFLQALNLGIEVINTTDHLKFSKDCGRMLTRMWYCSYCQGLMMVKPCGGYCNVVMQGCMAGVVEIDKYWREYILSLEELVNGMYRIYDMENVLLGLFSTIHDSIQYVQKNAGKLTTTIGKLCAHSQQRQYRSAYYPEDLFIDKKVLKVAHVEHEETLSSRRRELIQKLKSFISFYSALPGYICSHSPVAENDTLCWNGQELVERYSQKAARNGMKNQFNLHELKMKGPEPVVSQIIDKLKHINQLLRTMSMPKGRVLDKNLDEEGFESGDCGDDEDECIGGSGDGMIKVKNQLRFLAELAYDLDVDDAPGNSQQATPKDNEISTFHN

human GPC3 protein = human GPC3 protein (human, UniProt P51654); experiment: SPR
Sequence of human GPC3 protein (P51654 25-554): as above

monkey CD3 E&D protein = target: T3, monkey CD3 E&D protein (cynomolgus monkey, UniProt Q95LI5); experiment: SPR
T3 chain 1: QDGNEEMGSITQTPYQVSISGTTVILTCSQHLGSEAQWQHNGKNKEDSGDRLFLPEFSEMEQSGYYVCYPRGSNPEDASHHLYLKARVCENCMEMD
T3 chain 2: T2 chain 2 with I5V, N15K, I20V, S32T, D33N, I34N, T64A, S74N, V83L

B1: G100 (anti-CD3 scFv arm) (antibody, V domains shown)
VH: EVKLVESGGGLVQPGGSLKLSCAASGFTFNTYAMNWVRQAPGKGLEWVARIRSKYNNYATYYADSVKDRFTISRDDAKNTLYLQMNNLRTEDTAVYYCVRHGNFGNSYVSWFAYWGQGTLVTVSS
VL: QAVVTQEPSLTVSPGGTVTLTCRSSTGAVTTSNYANWVQQKPGQAPRGLIGGTNKRAPGTPARFSGSLLGGKAALTLSGAQPEDEAEYYCALWYSNLWVFGGGTKLTVL
- EC50 (human CD3 (Jurkat cells)): 23.9 nM

B2: G100 (anti-CD3 scFv arm) (antibody, V domains shown)
VH: B1 VH
VL: B1 VL
modifications: Acro CDD-H52W1
- Kd (human CD3 E&D protein): 3.49 nM

B3: G100 (anti-GPC3 VHH arm, monovalent, Format 1) (antibody, V domains shown)
VH: QVQLVESGGGVVQPGGSLRLSCAASGRTLTNYVMGWFRQAPGKEREIVAGINWAGSRIGYGDFVKGRFTISRDNSKNTVYLQMNSLRPEDTAVYYCAAKLGKYNYPEYDYRGQGTLVTVSS
VL: B1 VL
- EC50 (human GPC3 (HepG2 cells)): 0.42 nM
- Kd (human GPC3 protein): 8.36 nM

B4: G100 (anti-CD3 scFv arm) (antibody, V domains shown)
VH: B1 VH
VL: B1 VL
modifications: Acro CDD-C52W4
- Kd (monkey CD3 E&D protein): 5.66 nM

B5: G156 (anti-CD3 scFv arm) (antibody, V domains shown)
VH: B1 VH
VL: B1 VL
modifications: Acro CDD-H52W1
- Kd (human CD3 E&D protein): 1.3 nM

B6: G156 (anti-CD3 scFv arm) (antibody, V domains shown)
VH: B1 VH
VL: B1 VL
modifications: Acro CDD-C52W4
- Kd (monkey CD3 E&D protein): 2.79 nM

B7: G156 (anti-CD3 scFv arm) (antibody, V domains shown)
VH: B1 VH
VL: B1 VL
- EC50 (human CD3 (Jurkat cells)): 27.4 nM

B8: G156 (anti-GPC3 VHH arm, two VHH copies, Format 2) (antibody, V domains shown)
VH: B3 VH
VL: B1 VL
- EC50 (human GPC3 (HepG2 cells)): 0.16 nM
- Kd (human GPC3 protein): 5.42 nM
